# Reference: patent publication US20250000991A1, “NECTIN-4 ANTIBODIES AND ANTIBODY-DRUG CONJUGATES” (Eli Lilly and Company, priority 2023, published 2025)
# T1: human Nectin-4 (Homo sapiens, UniProt Q96NY8)
# T1 construct: His tag; purchased Acro Biosystems NE4-H52H3
# T1 sequence (Q96NY8 32-510): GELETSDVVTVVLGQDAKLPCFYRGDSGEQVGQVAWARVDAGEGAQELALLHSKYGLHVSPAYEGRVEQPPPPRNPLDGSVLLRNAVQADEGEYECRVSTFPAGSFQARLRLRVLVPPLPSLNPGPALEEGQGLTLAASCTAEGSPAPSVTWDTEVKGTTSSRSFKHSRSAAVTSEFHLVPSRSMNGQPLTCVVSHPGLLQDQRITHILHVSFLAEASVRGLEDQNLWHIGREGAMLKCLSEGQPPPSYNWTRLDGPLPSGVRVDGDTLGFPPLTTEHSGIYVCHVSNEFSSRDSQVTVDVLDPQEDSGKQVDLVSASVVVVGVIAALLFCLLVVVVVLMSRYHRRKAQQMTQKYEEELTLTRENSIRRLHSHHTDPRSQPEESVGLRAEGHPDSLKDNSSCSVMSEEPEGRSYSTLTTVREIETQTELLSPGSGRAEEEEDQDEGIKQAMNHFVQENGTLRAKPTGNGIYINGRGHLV
# Tests used:
# [1] = tested on: T24 mScarlet clone 5 Nectin-4 negative cells; experiment: Bystander killing of T24-mScarlet clone 5 cells co-cultured with T24-human nectin4 clone108 (imaging); type: cell-based; conditions: T24-mScarlet clone5 : T24-human nectin4 clone108 9:1, 5 days, ADC Formula XI DAR 8; read-out: IC50 of bystander effect
# Method: T24 cell line was engineered to express mScarlet and clonally selected to test in bystander assay. T24-mScarlet clone5 and T24-human nectin4 clone108 were mixed and seeded at a total of 1000 cells/well/100 ul with a ratio of 9:1 in culture medium (McCoy's 5A+1× GlutaMax+10% Heat Inactivated Fetal Bovine Serum+400 μg/ml G418) in flat clear bottom 96-well plates. T24 mScarlet clone 5 cells were negative for nectin-4 expression. Plates were incubated at 37° C. with 5% CO2 overnight. Next day, ADCs were added at final working concentration from 50 nM, 1:4 serially diluted in culture medium. Plates were covered with Breathe-Easy® sealing membrane, placed in BioSpa and scanned in Cytation5 every day for 5 days.
# Images of T24-mScarlet cells were captured and analyzed by Cytation5 with Gen5 Image Prime 3.11. Percentage of T24-mScarlet cell killing was calculated by decreased Integrated Intensity (area×mean intensity), normalized to zero hour and no treatment. Data was graphed and analyzed using GraphPad Prism version 9.5.1. IC50 was determined via log(inhibitor) vs. response-variable slope (four parameters) curve fitting.
# cyno Nectin-4 = experiment: Surface plasmon resonance (Biacore 8K+) binding of nectin-4 ADCs to cyno Nectin-4; conditions: cyno Nectin-4, 37° C., ADC Formula XI DAR 8, n=1
# Method: (§1) An anti-human Fc sensor surface was prepared by amine-coupling of goat anti-human IgG Fc (Southern Biotech Cat. No. 2014-01, Birmingham, AL) to a Biacore Series S CM4 (Cytiva Cat. No. BR-100534) sensor surface at 25° C. For immobilization, a running buffer of 10 mM HEPES, 150 mM NaCl, 0.05% Tween-20, pH 7.4 was used. Flow cells 1 & 2 of all 8 channels were activated with a 1:1 (v/v) mixture of 400 mM 1-Ethyl-3-(3-dimethylaminopropyl) carbodiimide hydrochloride (EDC) and […] N-Hydroxysuccinimide (NHS) at a flow rate of 10 uL/min for 7 minutes. Then the anti-human IgG Fc capture reagent was coupled to the sensor surface (diluted to 50 μg/mL in 10 mM Acetate pH 4.5 buffer) by injecting it in all flow cells and channels at a flow rate of 10 uL/min for 7 minutes. Remaining active groups were blocked by injecting 100 mM ethylenediamine (in 200 mM Borate buffer, pH 8.5) in all flow cells and channels at a flow rate of 10 uL/min for 7 minutes. All channels and flow cells were then preconditioned using three consecutive 1-minute injections of 75 mM phosphoric acid at 10 uL/min.
# (§2) In each analysis cycle, a different ADC was captured on flow cell 2 of each channel by injecting it at 5 μg/mL and 10 uL/min. After capture, the same analyte was injected on flow cells 1 and 2 in all 8 channels for 2 minutes at 30 uL/n and dissociation was monitored for 10 minutes. After dissociation, all surfaces were regenerated with three 1-minute injections of 5 mM phosphoric acid at 10 uL/min. ADC capture and analyte cycles were repeated to obtain analyte binding of each ADC at concentrations of 0, 2.5, 7.4, 22, 67, 200 and 600 nM nectin-4.
# (§3) Sensorgram data were fit globally with the default 1:1 binding model in Biacore Insight Evaluation Software v3.0.12.15655.
# human Nectin-4 = molecular target: T1, human Nectin-4; experiment: Surface plasmon resonance (Biacore 8K+) binding of nectin-4 ADCs to human Nectin-4; conditions: human Nectin-4, 37° C., ADC Formula XI DAR 8; n=3 mean ± SD, n=2 replicate values
# Method: as §1, §2, §3
# rat Nectin-4 = experiment: Surface plasmon resonance (Biacore 8K+) binding of nectin-4 ADCs to rat Nectin-4; conditions: rat Nectin-4, 37° C., ADC Formula XI DAR 8, n=1
# Method: as §1, §2, §3
Molecule,IC50 [1] [nM],ka (cyno Nectin-4) [M⁻¹ s⁻¹],kd (cyno Nectin-4) [s⁻¹],ka (human Nectin-4),kd (human Nectin-4),ka (rat Nectin-4) [M⁻¹ s⁻¹],kd (rat Nectin-4) [s⁻¹],KD (cyno Nectin-4; KD = kd/ka),KD (rat Nectin-4; KD = kd/ka)
Ab3 (conjugate) heavy: EVQLVESGGGLVKPGGSLRLSCAASGFNLNHYNMNWVRQAPGKGLEWVSSVSSGGGFRYYADSVRGRFTISRDNAKNSLYLQMNSLRAEDTAVYYCARGAVFHDAFDIWGQGTLVTVSSASTKGPSVFPLAPSSKSTSGGTAALGCLVKDYFPEPVTVSWNSGALTSGVHTFPAVLQSSGLYSLSSVVTVPSSSLGTQTYICNVNHKPSNTKVDKRVEPKSCDKTHTCPPCPAPEAAGGPSVFLFPPKPKDTLMISRTPEVTCVVVSVSHEDPEVKFNWYVDGVEVHNAKTKPREEQYNSTYRVVSVLTVLHQDWLNGKEYKCKVSNKALPAPIEKTISKAKGQPREPQVYTLPPSREEMTKNQVSLTCLVKGFYPSDIAVEWESNGQPENNYKTTPPVLDSDGSFFLYSKLTVDKSRWQQGNVFSCSVMHEALHNHYTQKSLSLSPGK light: DIQLTQSPSFLSASVGDRVTITCRASQDISSYLAWYQQKPGKAPKLLIYVASTLQSGVPSRFSGSGSGTEFTLTISSLQPEDFATYYCQQINSYPFTFGQGTKVEIKRTVAAPSVFIFPPSDEQLKSGTASVVCLLNNFYPREAKVQWKVDNALQSGNSQESVTEQDSKDSTYSLSSTLTLSKADYEKHKVYACEVTHQGLSSPVTKSFNRGEC,0.047,432000,0.000426,(4.24 ± 0.76) × 10^5 1/Ms,(4.37 ± 1.56) × 10^−4 1/s,171000,0.000903,–,–
Ab6 (conjugate) heavy: QVQLVQSGAEVKKPGASVKVSCKASGYTFTGYYMHWVRQAPGQGLEWMGIINPSGGSTTYAQKFQGRVTMTRDTSTSTVYMELSSLRSEDTAVYYCARGRLGTYFDYWGQGTLVTVSSASTKGPSVFPLAPSSKSTSGGTAALGCLVKDYFPEPVTVSWNSGALTSGVHTFPAVLQSSGLYSLSSVVTVPSSSLGTQTYICNVNHKPSNTKVDKRVEPKSCDKTHTCPPCPAPEAAGGPSVFLFPPKPKDTLMISRTPEVTCVVVSVSHEDPEVKFNWYVDGVEVHNAKTKPREEQYNSTYRVVSVLTVLHQDWLNGKEYKCKVSNKALPAPIEKTISKAKGQPREPQVYTLPPSREEMTKNQVSLTCLVKGFYPSDIAVEWESNGQPENNYKTTPPVLDSDGSFFLYSKLTVDKSRWQQGNVFSCSVMHEALHNHYTQKSLSLSPGK light: SYVLTQPPSVSVAPGQTARITCGGNNIGSKSVHWYQQKPGQAPVLVVYDDSDRPSGIPERFSGSNSGNTATLTISRVEAGDEADYYCQVWDRSSDQVVFGGGTKLTVLGQPKAAPSVTLFPPSSEELQANKATLVCLISDFYPGAVTVAWKADSSPVKAGVETTTPSKQSNNKYAASSYLSLTPEQWKSHRSYSCQVTHEGSTVEKTVAPTECS,0.0587,–,–,(1.78 ± 0.41) × 10^6 1/Ms,(1.63 ± 0.25) × 10^−1 1/s,925000,0.105,heterogeneous kinetics*,–
Ab4 (conjugate) heavy: QVQLQESGPGLVKPSETLSLTCTVSGGSISGYYWSWIRQPPGKGLEWIGYIYYSGSTNYNPSLKSRVTISVDTSKNQFSLKLSSVTAADTAVYYCARLGIFFDAFDIWGQGTLVTVSSASTKGPSVFPLAPSSKSTSGGTAALGCLVKDYFPEPVTVSWNSGALTSGVHTFPAVLQSSGLYSLSSVVTVPSSSLGTQTYICNVNHKPSNTKVDKRVEPKSCDKTHTCPPCPAPEAAGGPSVFLFPPKPKDTLMISRTPEVTCVVVSVSHEDPEVKFNWYVDGVEVHNAKTKPREEQYNSTYRVVSVLTVLHQDWLNGKEYKCKVSNKALPAPIEKTISKAKGQPREPQVYTLPPSREEMTKNQVSLTCLVKGFYPSDIAVEWESNGQPENNYKTTPPVLDSDGSFFLYSKLTVDKSRWQQGNVFSCSVMHEALHNHYTQKSLSLSPGK light: DIQLTQSPSFLSASVGDRVTITCRASQGISSYLAWYQQKPGKAPKLLIYAASTLQSGVPSRFSGSGSGTEFTLTISSLQPEDFATYYCQQFNSYPWTFGQGTKVEIKRTVAAPSVFIFPPSDEQLKSGTASVVCLLNNFYPREAKVQWKVDNALQSGNSQESVTEQDSKDSTYSLSSTLTLSKADYEKHKVYACEVTHQGLSSPVTKSFNRGEC,0.0798,380000,–,(3.59 ± 0.80) × 10^5 1/Ms,(7.32 ± 1.19) × 10^−2 1/s,–,–,–,weak binding
Ab5 (conjugate) heavy: QVQLVQSGAEVKKPGASVKVSCKASGYTFTSYYVHWVRQAPGQGLEWMGIINPSIISTSYAQKFQARVTMTRDTSTSTVYMELSSLRSEDTAVYYCARGLNFDAFDIWGQGTLVTVSSASTKGPSVFPLAPSSKSTSGGTAALGCLVKDYFPEPVTVSWNSGALTSGVHTFPAVLQSSGLYSLSSVVTVPSSSLGTQTYICNVNHKPSNTKVDKRVEPKSCDKTHTCPPCPAPEAAGGPSVFLFPPKPKDTLMISRTPEVTCVVVSVSHEDPEVKFNWYVDGVEVHNAKTKPREEQYNSTYRVVSVLTVLHQDWLNGKEYKCKVSNKALPAPIEKTISKAKGQPREPQVYTLPPSREEMTKNQVSLTCLVKGFYPSDIAVEWESNGQPENNYKTTPPVLDSDGSFFLYSKLTVDKSRWQQGNVFSCSVMHEALHNHYTQKSLSLSPGK light: DIQLTQSPSFLSASVGDRVTITCRASQGISSYLAWYQQKPGKAPKLLIYAASTLQSGVPSRFSGSGSGTEFTLTISSLQPEDFATYYCQQLNNYPFTFGQGTKVEIKRTVAAPSVFIFPPSDEQLKSGTASVVCLLNNFYPREAKVQWKVDNALQSGNSQESVTEQDSKDSTYSLSSTLTLSKADYEKHKVYACEVTHQGLSSPVTKSFNRGEC,0.0766,1.06e+06,0.0033,(8.78 ± 1.07) × 10^5 1/Ms,(3.46 ± 0.48) × 10^−3 1/s,636000,0.0199,–,–
